# Article PMC2807033 (2009)
# No end group written: not given here. *: point of attachment. Biotin = O=C1N[C@H]2[C@H](CS[C@H]2CCCCC(=O)*)N1
# Biological target: E. coli replicative helicase DnaB, purified (E. coli, UniProt P0ACB0 1-471)
# Assay: SPR
# Chain of E. coli replicative helicase DnaB, purified (P0ACB0 whole entry): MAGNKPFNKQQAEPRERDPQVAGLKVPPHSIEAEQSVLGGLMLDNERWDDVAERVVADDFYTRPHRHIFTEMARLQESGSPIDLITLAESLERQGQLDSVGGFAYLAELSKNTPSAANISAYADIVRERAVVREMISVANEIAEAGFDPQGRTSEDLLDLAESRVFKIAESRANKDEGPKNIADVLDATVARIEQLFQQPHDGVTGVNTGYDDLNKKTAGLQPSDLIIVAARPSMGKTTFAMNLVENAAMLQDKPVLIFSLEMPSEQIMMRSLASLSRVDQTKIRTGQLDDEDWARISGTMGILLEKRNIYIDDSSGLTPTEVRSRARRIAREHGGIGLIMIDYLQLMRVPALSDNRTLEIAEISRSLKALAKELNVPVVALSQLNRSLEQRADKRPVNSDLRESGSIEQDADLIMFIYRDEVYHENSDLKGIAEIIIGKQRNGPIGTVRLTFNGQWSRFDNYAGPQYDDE
binder,measurement,value
Biotin-EQERKVVSAEERMQKGQSHLANLKAMMAAKRGK [C33^Rep peptide (synthetic peptide corresponding to the C-terminal 33 residues of Rep)],Kd,44 nM
